“And” between values parts separate entries of the source, which are not always exact repeats. Identical values can stand only once. “Also recorded” adds a separate entry of the source.
B1: (OVA)-3-1: ovalbumin modified via SMCC with nonasaccharide 3-1, average of three saccharides per OVA (conjugate)
chain: GSIGAASMEFCFDVFKELKVHHANENIFYCPIAIMSALAMVYLGAKDSTRTQINKVVRFDKLPGFGDSIEAQCGTSVNVHSSLRDILNQITKPNDVYSFSLASRLYAEERYPILPEYLQCVKELYRGGLEPINFQTAADQARELINSWVESQTNGIIRNVLQPSSVDSQTAMVLVNAIVFKGLWEKAFKDEDTQAMPFRVTEQESKPVQMMYQIGLFRVASMASEKMKILELPFASGTMSMLVLLPDEVSGLEQLESIINFEKLTEWTSSNVMEERKIKVYLPRMKMEEKYNLTSVLMAMGITDVFSSSANLSGISSAESLKISQAVHAAHAEINEAGREVVGSAEAGVDAASVSEEFRADHPFLFCIKHIATNAVLFFGRCVSP
B2: ovalbumin (protein, UniProt P01012 2-386, looked up)
Ovalbumin: B1 chain
notes: model antigen, unmodified

Key:
[1] = test system: CD11c+ dendritic cells / OTII T cells; test: Antigen presentation assay, purified CD11c+ dendritic cells and purified OTII T cells; assay type: cell-based, mouse
Protocol: FIGS. 4A, 4B, 4C and 4D are graphs showing that CD11c^+ dendritic cells are the main antigen presenting cells presenting 3-1-targeted antigen. […] 1.5×10^4 Splenic CD11c^+ dendritic cells purified from C57BL/6 mice and 3.0×10^4 purified OTII T cells were incubated with OVA (starting concentration 300 μg mL^−1) or (OVA)-3-1 (starting concentration 25 μg mL^−1) in graded doses for eight-four hours with [^3H]thymidine (1 μCi) added for the last twelve hours. […] Purified CD11c^+ dendritic cells and OTII T cells were incubated with (OVA)-3-1 (25 μg mL^−1)±each potential inhibitor (100 μg mL^−1). T cell proliferation was determined as for FIG. 4A. […] CD11c^+ dendritic cells and OTII T cells were incubated with OVA or (OVA)-3-1±lipopolysaccharide ([…]). Also included are all ‘non-dendritic cells’ (macrophages and B cells) obtained during the purification of the dendritic cells. T cell proliferation was determined as described in FIG. 4A. […] Supernatants from cells described in FIG. 4C were collected at forty-eight and seventy-two hours and measured for IFN-γ by ELISA; the values presented are from the seventy-two hour time point. All measurements here were performed in triplicate.
To confirm that the increased T cell proliferation observed with (OVA)-3-1 was due to the selective uptake of this conjugate by dendritic cells and not B cells or macrophages, purified CD11c^+ dendritic cells were prepared from wild-type C57BL/6 mice and the OVA-specific T cells from transgenic OTII mice (see Materials & Methods). The in vitro antigen presentation assays described above were then repeated. […] By comparison, >50-fold more unmodified OVA was required to obtain similar levels of T cell proliferation. When B cells and macrophages were used as antigen-presenting cells in place of purified dendritic cells, the resulting T cell responses were negligible (FIG. 4C), providing strong confirmation that CD11c^+ dendritic cells are the main antigen-presenting cells mediating uptake and presentation of (OVA)-3-1 to OTII T cells.
Pooled inguinal lymph nodes were dissociated in 10% Fetal Bovine Serum RPMI (supplemented with 2 mM L-glutamine) and either mechanically dissociated between two glass slides or, to improve the overall cell yield, incubated in the presence of collagenase (Boehringer) and EDTA for 25 minutes at 37° C./5% CO2 to dissociate DC-T cell clusters. For antigen presentation assays with whole splenocytes, isolated spleens were injected with collagenase/EDTA, gently teased apart and incubated as described above. Splenocytes were cultured in 96-well round-bottom plates at a density of 3×10^5 cells/0.2 mL. In antigen presentation assays utilizing purified dendritic cells and T cells, dendritic cells were isolated from the spleens of C57BL/6 mice following collagenase/EDTA treatment by labeling the dendritic cells with commercially available magnetic microbeads linked to an anti-CD11c^+ antibody (Miltenyi Biotec, Bergisch Gladbach, Germany) (according to the Miltenyi Biotec protocol) and separating labeled Dendritic cells from non-dendritic cells by application of a magnetic field. Similarly, purified […] T cells were obtained from spleens of OTII transgenic mice using magnetic beads Dynal (Oslo, Norway). Purified dendritic cells and T cells were seeded onto 96-well plates round-bottom Plates at a 1:2 DC:T cell ratio unless stated otherwise in the Figures.

OTII T cells = test: Adoptive transfer of CFSE-labeled OTII cells, immunization with CFA or mBSA, cell number and CFSE dilution; assay type: in vivo, mouse; conditions: for T cells that had undergone cell division: antigen 50 ng ± mBSA 50 μg subcutaneous, CFSE
Protocol: FIGS. 7A and 7B are a series of dot plots showing that inflammatory stimuli dampen the effects of DC targeting by (OVA)-3-1. FIG. 7A includes two dot plots showing the 5-(6)-carboxyfluorescein diacetate succinimidyl ester (CFSE), a cell-permeable dye, intensity present in a population of cells. 2×10^7 CFSE-labeled OTII splenocytes were adoptively transferred to B6.Ly5.2/Cr recipients and the mice were immunized subcutaneously with OVA (200 ng) or (OVA)-3-1 (200 ng) emulsified in Complete Freund's Adjuvant. At seventy-two hours post immunization the draining inguinal lymph nodes were isolated and the expansion of CD45.2^+Vα2^+ was evaluated for CFSE dilution by flow cytometry. 4×10^5 total counts were collected. The plots display the CFSE intensity associated with the gated population of Vα2^+CD45.2^+ donor cells. The numbers indicate the percentage of CFSE high (undivided; R3 gate) and CFSE low (divided; R4 gate) OTII T cells. FIG. 7B is a series of five dot plots showing the enhancement in T cell proliferation promoted by neoglycoprotein mBSA. CFSE-labeled OTII splenocytes were adoptively transferred as in (A) and mice were immunized subcutaneously with mBSA (50 μg); OVA (50 ng); (OVA)-3-1 (50 ng); OVA (50 ng)+mBSA (50 μg) or (OVA)-3-1 (50 ng)+mBSA (50 μg). At 3 days the mice were sacrificed and isolated cells were analyzed as described in (A). Both FIGS. 7A and 7B are results from one of two separate experiments.
These cytokines aid in the recruitment and activation of monocytes and dendritic cells at the site of administration, thereby promoting a heightened immune response. […] Prior to transferring the CD45.2 OTII T cells to the B6.Ly5.2/Cr recipients, the cells were stained with 5-(6)-carboxyfluorescein diacetate succinimidyl ester (CFSE), a cell-permeable dye that freely crosses the cell membrane; once inside the cell, however, cellular esterases hydrolyze the CFSE's ester functional groups to generate a negatively charged molecule that cannot cross back across the cell membrane. This dye is used to monitor cell division by flow cytometry as each successive cell division leads to a dilution of CFSE among the daughter cells.
To administer pro-inflammatory stimuli at the same time as soluble antigen, OVA and (OVA)-3-1 were emulsified in Complete Freund's Adjuvant (CFA) prior to immunization. CFA is an oil-based mixture of mycobacterial cell wall components that is known to induce strong TH1 T cell responses^2. Seventy-two hours after immunization, cells from the draining lymph nodes were isolated and analyzed by flow cytometry for cell number and divisions (FIG. 7A). […] In fact, the enhancement previously observed relative to soluble OVA (FIG. 6B) was largely diminished. […] Without being tied to one particular theory, one potential reason for this observation could be that dendritic cells targeted with (OVA)-3-1 produced more peptide-MHC class II complexes than those targeted by OVA as receptor-mediated endocytosis delivered more antigen to the cell before full maturation was reached^10.
Since most lectins have weak affinities for monosaccharides, these experiments were repeated with BSA that was modified with approximately 25 mannose residues per protein molecule (mBSA). […] Mice that had received CFSE-labeled OTH T cells were immunized with mBSA, OVA, (OVA)-3-1, OVA plus mBSA, or (OVA)-3-1 plus mBSA and their T cell responses were analyzed at seventy-two hours (FIG. 7B). […]

[2] = purified CD11c+ dendritic cells and OTII T cells

Molecule | inhibitory effect on (OVA)-3-1 presentation by dendritic cells ([1]; (OVA)-3-1 25 μg mL^−1, inhibitor 100 μg mL^−1) | OTII T cell proliferation after immunization with mBSA alone (OTII T cells; mBSA 50 μg subcutaneous, 72 h) | capture and presentation by purified CD11c+ dendritic cells to OTII T cells compared to soluble OVA ([1]; parallel titration series) | decrease in presentation to OTII T cells as a result of TLR-mediated dendritic cell maturation ([1]; plus lipopolysaccharide (LPS)) | presentation to T cells upon TLR-4 stimulation ([1]; plus lipopolysaccharide (LPS)) | low concentration at which capture and presentation was still highly efficient [1, 2] | increase in OTII T cell number compared to OVA (OTII T cells; 50 ng subcutaneous, 72 h) | T cells that had undergone cell division (OTII T cells; 72 h) | enhancement of T cell activation / proliferation relative to OVA in saline (OTII T cells; in vivo immunization) | excess of unmodified OVA required to obtain levels of T cell proliferation similar to (OVA)-3-1 [1, 2]
mBSA: BSA modified with approximately 25 mannose residues per protein molecule [reference compound] | Neither mBSA nor Lewis^x-BSA were inhibitory | did not proliferate | – | – | – | – | – | – | – | –
B1 | – | – | highly efficient; also recorded: efficiently present | 60% | remained better than targeting by unmodified OVA; also recorded: significantly decreased | 16 nM | 2 fold | 58% and 55% | 2 fold | –
B2 | – | – | – | 30% | – | – | – | 33% | – | > 50 fold

— patent publication US8273357B2, “Antigen-carbohydrate conjugates” (Massachusetts Institute of Technology, priority 2004, dated 2012)
